Measurements from paper PMC8469728, “Molecular and Enzymatic Characterization of Flavonoid 3′-Hydroxylase of Malus × domestica” (Plants, 2021).

T1: CsCH3H (Cosmos sulphureus, UniProt D8KZE8)
T1 construct: recombinant, expressed in Saccharomyces cerevisiae INVSc1, microsomal preparation
T1 sequence (D8KZE8 1-512): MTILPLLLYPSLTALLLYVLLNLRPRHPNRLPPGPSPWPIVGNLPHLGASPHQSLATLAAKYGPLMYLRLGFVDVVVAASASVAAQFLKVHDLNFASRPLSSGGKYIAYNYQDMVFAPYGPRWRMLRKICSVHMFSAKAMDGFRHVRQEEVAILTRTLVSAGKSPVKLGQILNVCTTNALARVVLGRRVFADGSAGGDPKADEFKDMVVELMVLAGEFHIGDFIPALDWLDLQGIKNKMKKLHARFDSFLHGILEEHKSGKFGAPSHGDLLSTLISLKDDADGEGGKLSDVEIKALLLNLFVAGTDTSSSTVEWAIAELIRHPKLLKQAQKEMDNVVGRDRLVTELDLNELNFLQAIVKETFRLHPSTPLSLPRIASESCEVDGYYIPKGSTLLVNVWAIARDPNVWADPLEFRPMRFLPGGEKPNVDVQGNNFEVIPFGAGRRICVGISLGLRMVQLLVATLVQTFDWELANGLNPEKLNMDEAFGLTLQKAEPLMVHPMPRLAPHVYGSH


Legend:
CsCH3H = target: T1, CsCH3H; assay: LC-MS/DAD detection of 3-hydroxyphloretin formed by yeast microsomes; format: biochemical; settings: 10 µM substrate, 1.55 mM NADPH, 100 mM HEPES pH 7.5, 30 °C
[1] = substrate: O=C1C[C@@H](c2ccc(O)cc2)Oc2cc(O)cc(O)c21; assay: cells, lysate or membranes; format: biochemical, Malus domestica; settings: 0.5 mM NADPH, Tris/HCl pH 6.5–6.75, 25 °C, labelled compound, pH 6.0
[2] = substrate: O=C1c2c(O)cc(O)cc2O[C@H](c2ccc(O)cc2)[C@H]1O; assay: cells, lysate or membranes; format: biochemical, Malus domestica; settings: 0.5 mM NADPH, Tris/HCl pH 6.5–6.75, 25 °C, labelled compound, pH 6.0
[3] = substrate: O=c1c(O)c(-c2ccc(O)cc2)oc2cc(O)cc(O)c12; assay: cells, lysate or membranes; format: biochemical, Malus domestica; settings: 0.5 mM NADPH, Tris/HCl pH 6.5–6.75, 25 °C, labelled compound, pH 6.0

Row | Molecule | LC-MS/DAD detection of 3-hydroxyphloretin formed by yeast microsomes (CsCH3H) | Km [1] | Vmax [1] | Km [2] | Vmax [2] | Km [3] | Vmax [3]
1 | O=C(CCc1ccc(O)cc1)c1c(O)cc(O)cc1O [phloretin] | produced sufficient amounts of 3-hydroxyphloretin to be detected by the DAD |  |  |  |  |  | 
2 | MdF3′HI (Malus domestica; I211M) (protein, full-length ORF, 511 residues, C-terminal Twin-Strep-tag, expressed in Saccharomyces cerevisiae INVSc1, microsomal preparation; clone MH468788 has I211 and S224, differing from FJ919631 at both residues (M211 and P224 there)) MFVLIVFTVVFAFFLYRIFAPGGSRHSLPLPPGPKPWPVVGNLPHLGPVPHHSLAALARQYGPLMHLRLGFVDVVVAASASVASQFLKTHDANFSSRPPNSGAKHLAYNYQDLVFAPYGPRWRLLRKISSVHLFSGKALDDLKHVRQEEVGVLAHGLASAGSKPVNLAQLLNVCTVNALGRVMVGRRLFGNGMGGEDPKADEFKSMVVEMMVLAGVFNIGDFISSLEWLDLQGVAGKMKKLHKRFDAFLTAIVEEHKRSRGGKHVDMLTTLLSLKEDADGEGAKLTDTEIKALLLNMFTAGTDTSSSTVEWAIAELLRHPKILAQLQQELDQVVGRDRLVTESDLPNLTYLQAVIKETFRLHPSTPLSLPRMATESCEINGFHIPKGATLLVNVWAVSRDPDQWSEPLEFRPERFMSGGEKPNVDIRGNDFEVIPFGAGRRICAGMSLGLRMVSLMTATLVHGFDWTLADGLTPEKLNMDEAYGLTLQRAAPLMVHPRNRLAPHAYNASSS |  | 2.11 ± 1.5 µM | 43.8 µM/min | 0.42 ± 0.06 µM | 28.2 µM/min | 0.21 ± 0.07 µM | 21 µM/min
3 | MdF3′HII (Malus domestica) (protein, full-length ORF, 511 residues, C-terminal Twin-Strep-tag, expressed in Saccharomyces cerevisiae INVSc1, microsomal preparation; differs from FJ919633 at residues 73 and 457) MFVLIFFTVVLAFFLYRLFAPGGSRHALPLPPGPKPWPVVGNLPHLGPVPHHSLAALARQYGPLMHLRLGFADVVVAASASVASQFLKTHDANFSSRPPNSGAKHLAYNYQDLVFAPYGPRWRMLRKISSVHLFSGKALDDLKHVRQEEVGVLAHGLASAGSKPVSLGQLLNVCTVNALGRVMVGRRLFGDGGGREDQKADEFKSMVVEMMVLAGVFNIGDFIPALEWLDLQGVAGKMKKLHKRFDAFLTAIVEDHKRSGEGKHVDMLTTLLSLTDDADGEGAKLTDTEIKALLLNMFTAGTDTSSSTVEWAIAELLRHPKILAQLQQELDQVVGRDRLVTESDLPNLTYLQAVIKETFRLHPSTPLSLPRMASESCEINGFHIPKGATLLVNVWAISRDPAQWSEPLEFRPERFLPGGEKPNVDVKGNDFEVIPFGAGRRICAGMTLGLRMVSLMTATLVHGFDWTLADGLTPEKLNMDEAYGLTLQRAAPLMVHPRNRLAPHAYNASSP |  | 0.31 ± 0.10 µM | 30 µM/min | 0.31 ± 0.03 µM | 19.8 µM/min | 0.20 ± 0.02 µM | 19.8 µM/min
